Laboratory results as given in patent publication US20190248902A1 (published 2019).

Legend:
human ASGR-1 (wild type) [1] = target: T1, human ASGR-1 (wild type) (human, UniProt P07306 1-291); experiment: FACS, transfected CHO-S cells, mAb 5 ug/ml
T1 construct: also called wt ASGR1; huASGR-1
T1 sequence: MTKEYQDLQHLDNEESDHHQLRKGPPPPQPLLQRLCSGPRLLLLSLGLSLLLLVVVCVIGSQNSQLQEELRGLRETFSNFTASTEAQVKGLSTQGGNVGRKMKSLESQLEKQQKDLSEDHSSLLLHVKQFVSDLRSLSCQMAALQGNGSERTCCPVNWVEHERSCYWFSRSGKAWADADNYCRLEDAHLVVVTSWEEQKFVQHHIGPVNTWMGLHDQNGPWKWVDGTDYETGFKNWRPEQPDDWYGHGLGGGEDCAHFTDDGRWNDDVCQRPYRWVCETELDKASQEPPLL
Description: (§1) The ability of human ASGR-1-specific, ligand competing antibodies to bind to the mutant hASGR-1 proteins was assessed by FACS as described above.
(§2) Antibodies were tested for binding to the individual mutant and wild type ASGR-1 constructs using normalized antibody concentrations (5 ug/ml). CHO—S cells transiently expressing the appropriate mutated or non-mutated antigen of interest were mixed with antibody sample or controls, incubated for 1 hour at 4° C., and then washed twice. Cells with bound antibody were then incubated with Alexa Fluor® 647 IgG Fc fragment-specific detection antibody and 7-AAD viability stain for 15 minutes at 4° C., washed once and resuspended in FACS buffer. Samples were analyzed using a BD Accuri™ Flow Cytometer and an Intellicyt HyperCyt Autosampler. As a negative control, supernatants and controls were also screened against CHO—S cells transfected with empty parental vector (referred to as mock). […] Because mutant hASGR-1 expression levels varied relative to each other, sample binding data for each construct was normalized for expression by dividing the binding data from an antibody not affected by the mutations (e.g., 65C12) by the binding values of each test antibody on a given mutant construct. Also, because the antibody binding affinities varied amongst the samples, the expression corrected data (above) was further normalized by comparing test antibody binding on each mutant construct to wild type hASGR-1. Identification of specific mutations that affected test antibody binding was performed by an interquartile range (IQR) analysis to determine statistical outliers. A mutation was identified as a “hit” if the calculated values were >3× the IQR (above the 3rd quartile/upper fence) for a given mutant construct. Although IQR analysis was used here to determine signifance and identify hits, one skilled in the art will recognize that a number of methods could be employed in order to normalize the data (eg. using epitope-tagged constructs or other ASGR-1-binding antibodies directed against non-CBD epitopes).

[2] = target: T2, human ASGR-1 mutant construct H203 (human, UniProt P07306 1-291); experiment: FACS, transfected CHO-S cells, mAb 5 ug/ml
T2 construct: Arg/Glu scanning: non-arginine residues were changed to arginine; Transiently expressed on CHO-S cells
T2 sequence: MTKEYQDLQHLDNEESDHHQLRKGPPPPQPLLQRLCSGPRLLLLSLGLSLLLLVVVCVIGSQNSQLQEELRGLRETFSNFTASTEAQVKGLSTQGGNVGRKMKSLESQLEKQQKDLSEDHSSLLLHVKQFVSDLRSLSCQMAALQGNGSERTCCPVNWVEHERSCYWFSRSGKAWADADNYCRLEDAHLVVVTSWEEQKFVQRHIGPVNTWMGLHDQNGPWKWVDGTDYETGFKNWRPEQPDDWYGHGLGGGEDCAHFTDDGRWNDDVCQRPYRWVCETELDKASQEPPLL
Description: as §1, §2

human ASGR-1 (wild type) [3] = target: T1, human ASGR-1 (wild type); experiment: FACS ratio: 65C12 geomean / this mAb geomean
Description: (§3) Mutant hASGR-1 variants were constructed such that non-arginine residues were changed to arginine and where wild type arginine residues were mutated to glutamic acid. Each mutant hASGR-1 sequence was then cloned into a mammalian expression vector and used to transiently transfect CHOs cells. The ability of human ASGR-1-specific, ligand competing antibodies to bind to the mutant hASGR-1 proteins was assessed by FACS as described above.
(§4) Antibodies were tested for binding to the individual mutant and wild type ASGR-1 constructs using normalized antibody concentrations (5 ug/ml). CHO—S cells transiently expressing the appropriate mutated or non-mutated antigen of interest were mixed with antibody sample or controls, incubated for 1 hour at 4° C., and then washed twice. Cells with bound antibody were then incubated with Alexa Fluor® 647 IgG Fc fragment-specific detection antibody and 7-AAD viability stain for 15 minutes at 4° C., washed once and resuspended in FACS buffer. Samples were analyzed using a BD Accuri™ Flow Cytometer and an Intellicyt HyperCyt Autosampler. As a negative control, supernatants and controls were also screened against CHO—S cells transfected with empty parental vector (referred to as mock). […] Because mutant hASGR-1 expression levels varied relative to each other, sample binding data for each construct was normalized for expression by dividing the binding data from an antibody not affected by the mutations (e.g., 65C12) by the binding values of each test antibody on a given mutant construct. Also, because the antibody binding affinities varied amongst the samples, the expression corrected data (above) was further normalized by comparing test antibody binding on each mutant construct to wild type hASGR-1. Identification of specific mutations that affected test antibody binding was performed by an interquartile range (IQR) analysis to determine statistical outliers. A mutation was identified as a “hit” if the calculated values were >3× the IQR (above the 3rd quartile/upper fence) for a given mutant construct.

[4] = target: T2, human ASGR-1 mutant construct H203; experiment: FACS ratio: 65C12 geomean / this mAb geomean
Description: as §3, §4

[5] = target: T2, human ASGR-1 mutant construct H203; experiment: FACS ratio: H203 normalized value / wt normalized value
Description: as §1, §2

| Binder | FACS Binding Geomean (human ASGR-1 (wild type) [1]) | FACS Binding Geomean [2] | Expression Normalization to mAb 65C12 (human ASGR-1 (wild type) [3]) | Expression Normalization to mAb 65C12 [4] | Normalization to wt ASGR1 Binding [5] |
| --- | --- | --- | --- | --- | --- |
| 32D6 (antibody, V domains shown, mAb) VH: QVQLVESGGGVVQPGRSLRLSCAASGFTFSSYGMHWVRQAPGKGLEWVTVIWHDGSNAYYADSVKGRFTISRDNSKNTLYLQMNSLRAEDTAVYYCARENSSSYYFDYWGQGTLVTVSS VL: DIQMTQSPSSLSTSVGDRVTITCRASQNIISYLNWYQQKPGKAPKLLMYVASRLQSGVPSRFSGSGSGTDFTLTISSLQAEDFATYYCQQSYSTPYTFGGGTKVAIK | 36100 | 13500 | 1.55 | 1.91 | 1.23 |
| 6G6 (antibody, V domains shown, mAb) VH: QVQLVQSGAEVRKPGASVKVSCKASGYTFTNYDINWVRQATGQGPEWMGWMHPNSGNTGYAKKFQGRVTMTRNTSISAAYMVLSSLRSEDTAVYYCALSSGWYYFDYWGQGTLVTVSS VL: not shown | 47600 | 20500 | 1.18 | 1.26 | 1.07 |
| 4B3 (antibody, V domains shown, mAb) VH: not shown VL: SYELTQPPSVSVSPRQTVSITCSGDKLGDKYACWYQQKPGQSPVLVIYQDRKRPSGIPERFSGSNSGNTATLTISGTQAMDEADYYCQAWDNNTVIFGGGTKLTVL | 35600 | 1700 | 1.58 | 15.2 | 9.63 |
| 60D2 (antibody, V domains shown, mAb) VH: EVQLVESGGGLVQPGGSLRLSCGASGFTFSSYSMNWVRQAPGKGLEWVSYISESSNIIYYTDSVKGRFTISRDNAMNSLYLQMNSLRDEDTAVYYCARADTPMVLYFYGMDVWGQGTTVTVSS VL: SYELTQPPSVSVSPGQTASITCSGNKLGDKYASWYQQRPGQSPVLVIYQDNKRPSGIPERFSGSNSGNTATLTISGTQTMDEADYYCQAWDNNTVVFGGGTKLTVL | 29600 | 1370 | 1.89 | 18.8 | 9.95 |
| 65E9 (antibody, V domains shown, mAb) VH: not shown VL: SYELTQPPSVSVSPGQTASITCSGDKLGNKYDYWYQQKPGQSPVLVIYQDRKRPSGIPERFSGSNSGNTATLTISGTQAMDEADYYCQAWDNSTVVFGGGTKLTVL | 29600 | 1470 | 1.89 | 17.5 | 9.25 |
| 10G6 (antibody, V domains shown, mAb) VH: QVQLVQSGAEVKKPGASVKVSCKASGYTFTAYHMHWVRQAPGQGLEWMGWINPNNNGTNYAQKFQGRVTMTRDTSISTAYMELSRLRSDDTAVYYCGRDVTSSFDYWGQGTLVTVSS VL: DIQMTQSPSSVSASVGDRVTITCRASQGISKWLAWYQQKPGKAPKILIYAAYSLQSGVPARFSGSGSGTDFTLTIRSLQPEDFATYYCQQANSFPFTFGPGTKVDIK | 43100 | 18200 | 1.3 | 1.41 | 1.09 |
| 53F7 (antibody, V domains shown, mAb) VH: QVQLVQSGAEVKKPGASVKVSCKASGYTFTGYHMHWVRQAPGQGLEWMGWINPNNNGTNYAQKFQGRVTMTRDTSISTAYMELNRLTSDDTAVYYCARDGTSSFDYWGQGTLVTVSS VL: DIQMSQSPSSVSASVGDRVTITCRASQGISRWLAWYQQKPGKAPNLLIYAASSLQSGVPSRFSGSGSGTDFTLTISSLQPEDFAIYYCQQANSFPFTFGPGTKVDIK | 43500 | 18100 | 1.29 | 1.42 | 1.1 |
| 29E2 (antibody, V domains shown, mAb) VH: QVQLVESGGGVVQPGRSLRLSCAASGFTFSNCVMHWVRQAPGKGLEWVAVIWYDGSNKYYADSVKGRITISRDNSKNTLYLQMNSLRAEDTAVYYCAREEYSSGWYDYGMDVWGQGTTVTVSS VL: DIQMTQSPSSLSASVGDRVTITCRASQAIRNDLGWYQQRPGKAPKRLIYAASSLQSGVPSRFSGSGSGTEFILTISSLQPEDFATYYCLQHYNYPRSFGQGTKLEIK | 25800 | 15100 | 2.18 | 1.71 | 0.786 |
| 45B4 (antibody, V domains shown, mAb) VH: QVQLVESGGGVVQPGRSLRLSCAASGFTFSDCVMHWVRQAPGKGLEWVAVIWYDGSNKYYADSVKGRFTISRDNSKNTLYLQMNSLRAEDTAVYYCARERYSSGLYDYGMDVWGQGTTVTVSS VL: DIQMTQSPSSLSASVGDRVTFTCRASQGIRDDLGWYQQKPGKAPKRLIYAASSLQSGVPSRFSGSGSGTEFTLTISSLQPEDFATYYCLQHYSYPRTFGQGTKVEIK | 30400 | 14000 | 1.85 | 1.84 | 0.995 |
| 50G9 (antibody, V domains shown, mAb) VH: QVQLVESGGGVVQPGRSLRLSCAASGFIFSSYGMHWVRQAPGKGLEWVAVISQDGIIRYYADSVKGRFTISRDNSKNTLYLQMNSLRAEDTAVYYCARDVKQWLVRTYGMDVWGQGTTVTVSS VL: SYELTQPPSVSVSPGQTASITCSGDKLGDKYACWYQQKPGQSPVLVIYQDSKRPSGIPERFSGSNSGNTATLTISGTQARDEAEYYCQARNSRRGVFGGGTRLTVL | 37300 | 1510 | 1.5 | 17.1 | 11.4 |
